The supplement of paper PMC11246515
± gives the standard deviation of the averaged measurements.

Test: total protein half-life in vivo (active degradation + dilution); higher = more stable protein
[1] = E. coli NCM3722 delta-clpP, growth: N-lim chemostat, doubling time 6 h
[2] = E. coli NCM3722 delta-hslV, growth: N-lim chemostat, doubling time 6 h
[3] = E. coli NCM3722 delta-lon, growth: N-lim chemostat, doubling time 6 h
[4] = E. coli NCM3722 delta-smpB, growth: N-lim chemostat, doubling time 6 h
[5] = wild type E. coli NCM3722, growth: C-lim chemostat, doubling time 6 h
[6] = wild type E. coli NCM3722, growth: C-lim chemostat, doubling time 12 h
[7] = wild type E. coli NCM3722, growth: N-lim chemostat, doubling time 12 h
[8] = wild type E. coli NCM3722, growth: P-lim chemostat, doubling time 6 h
[9] = wild type E. coli NCM3722, growth: P-lim chemostat, doubling time 12 h
[10] = wild type E. coli NCM3722, growth: C-lim chemostat, doubling time 3 h
[11] = wild type E. coli NCM3722, growth: N-lim chemostat, doubling time 6 h
[12] = E. coli NCM3722 delta-clpP delta-lon delta-hslV, growth: N-lim chemostat, doubling time 6 h

Sequence	total protein half-life in vivo [1] [h]	total protein half-life in vivo [2] [h]	total protein half-life in vivo [3] [h]	total protein half-life in vivo [4] [h]	total protein half-life in vivo [5] [h]	total protein half-life in vivo [6] [h]	total protein half-life in vivo [7] [h]	total protein half-life in vivo [8] [h]	total protein half-life in vivo [9] [h]	total protein half-life in vivo [10] [h]	total protein half-life in vivo [11] [h]	total protein half-life in vivo [12] [h]
MLDLFKAIGLGLVVLLPLANPLTTVALFLGLAGNMNSAERNRQSLMASVYVFAIMMVAYYAGQLVMDTFGISIPGLRIAGGLIVAFIGFRMLFPQQKAIDSPEAKSKSEELEDEPSANIAFVPLAMPSTAGPGTIAMIISSASTVRQSSTFADWVLMVAPPLIFFLVAVILWGSLRSSGAIMRLVGKGGIEAISRLMGFLLVCMGVQFIINGILEIIKTYH [P0AEY1]	6.57 ± 0.74	5.91	6.14 ± 0.6	6.12 ± 0.25	5.73 ± 0.56	11.1 ± 0.56	10.7	6.23 ± 0.11	13 ± 1	–	–	–
MKKIIETQRAPGAIGPYVQGVDLGSMVFTSGQIPVCPQTGEIPADVQDQARLSLENVKAIVVAAGLSVGDIIKMTVFITDLNDFATINEVYKQFFDEHQATYPTRSCVQVARLPKDVKLEIEAIAVRSA [P0AGL2]	–	4.94 ± 0.13	5.08 ± 0.99	3.9	5.42	9.66 ± 1.9	7.12	6.2	10.6 ± 0.78	2.79	–	–
MLKQVEIFTDGSCLGNPGPGGYGAILRYRGREKTFSAGYTRTTNNRMELMAAIVALEALKEHCEVILSTDSQYVRQGITQWIHNWKKRGWKTADKKPVKNVDLWQRLDAALGQHQIKWEWVKGHAGHPENERCDELARAAAMNPTLEDTGYQVEV [P0A7Y4]	6.46 ± 0.89	–	–	–	5.92 ± 0.082	9.26	–	6.5 ± 0.82	–	–	4.7 ± 0.96	–
MAQLYFYYSAMNAGKSTALLQSSYNYQERGMRTVVYTAEIDDRFGAGKVSSRIGLSSPAKLFNQNSSLFDEIRAEHEQQAIHCVLVDECQFLTRQQVYELSEVVDQLDIPVLCYGLRTDFRGELFIGSQYLLAWSDKLVELKTICFCGRKASMVLRLDQAGRPYNEGEQVVIGGNERYVSVCRKHYKEALQVDSLTAIQERHRHD	4.06 ± 0.5	3.97 ± 0.089	5.17 ± 1.3	3.82 ± 0.42	4.98 ± 0.062	10.3 ± 0.56	6.8 ± 0.12	5.92 ± 0.58	11.7 ± 0.69	2.47 ± 0.051	3.86 ± 0.31	4.73 ± 0.29
MATNLRGVMAALLTPFDQQQALDKASLRRLVQFNIQQGIDGLYVGGSTGEAFVQSLSEREQVLEIVAEEAKGKIKLIAHVGCVSTAESQQLAASAKRYGFDAVSAVTPFYYPFSFEEHCDHYRAIIDSADGLPMVVYNIPALSGVKLTLDQINTLVTLPGVGALKQTSGDLYQMEQIRREHPDLVLYNGYDEIFASGLLAGADGGIGSTYNIMGWRYQGIVKALKEGDIQTAQKLQTECNKVIDLLIKTGVFRGLKTVLHYMDVVSVPLCRKPFGPVDEKYLPELKALAQQLMQERG [P0A6L4]	1.88 ± 0.19	3.01	2.66	1.84 ± 0.085	3.81 ± 0.35	5.83 ± 1.4	2.1 ± 0.3	4.43 ± 0.18	8.79	2.81 ± 0.23	2.28	2.77 ± 0.23
MENAKMNSLIAQYPLVKDLVALKETTWFNPGTTSLAEGLPYVGLTEQDVQDAHARLSRFAPYLAKAFPETAATGGIIESELVAIPAMQKRLEKEYQQPISGQLLLKKDSHLPISGSIKARGGIYEVLAHAEKLALEAGLLTLDDDYSKLLSPEFKQFFSQYSIAVGSTGNLGLSIGIMSARIGFKVTVHMSADARAWKKAKLRSHGVTVVEYEQDYGVAVEEGRKAAQSDPNCFFIDDENSRTLFLGYSVAGQRLKAQFAQQGRIVDADNPLFVYLPCGVGGGPGGVAFGLKLAFGDHVHCFFAEPTHSPCMLLGVHTGLHDQISVQDIGIDNLTAADGLAVGRASGFVGRAMERLLDGFYTLSDQTMYDMLGWLAQEEGIRLEPSALAGMAGPQRVCASVSYQQMHGFSAEQLRNTTHLVWATGGGMVPEEEMNQYLAKGR	5.27 ± 1.2	4.89 ± 0.1	5.43 ± 0.24	4.517 ± 0.042	–	10 ± 1.9	7.88 ± 0.44	5.98 ± 0.35	11.2 ± 2.2	3.01 ± 0.033	4.91 ± 0.21	5.22 ± 0.27
MSKVLVLKSSILAGYSQSNQLSDYFVEQWREKHSADEITVRDLAANPIPVLDGELVGALRPSDAPLTPRQQEALALSDELIAELKAHDVIVIAAPMYNFNISTQLKNYFDLVARAGVTFRYTENGPEGLVTGKKAIVITSRGGIHKDGPTDLVTPYLSTFLGFIGITDVKFVFAEGIAYGPEMAAKAQSDAKAAIDSIVSA	1.48 ± 0.24	1.34 ± 0.044	1.5 ± 0.044	1.49 ± 0.15	3.39 ± 0.25	5.43 ± 0.92	1.85 ± 0.14	4.25 ± 0.14	6.31 ± 0.4	2.81 ± 0.096	1.52 ± 0.16	2.22 ± 0.11
MKMVSRITAIGLAGVAICYLGLSGYVWYHDNKRSKQADVQASAVSENNKVLGFLREKGCDYCHTPSAELPAYYYIPGAKQLMDYDIKLGYKSFNLEAVRAALLADKPVSQSDLNKIEWVMQYETMPPTRYTALHWAGKVSDEERAEILAWIAKQRAEYYASNDTAPEHRNEPVQPIPQKLPTDAQKVALGFALYHDPRLSADSTISCAHCHALNAGGVDGRKTSIGVGGAVGPINAPTVFNSVFNVEQFWDGRAATLQDQAGGPPLNPIEMASKSWDEIIAKLEKDPQLKTQFLEVYPQGFSGENITDAIAEFEKTLITPDSPFDKWLRGDENALTAQQKKGYQLFKDNKCATCHGGIILGGRSFEPLGLKKDFNFGEITAADIGRMNVTKEERDKLRQKVPGLRNVALTAPYFHRGDVPTLDGAVKLMLRYQVGKELPQEDVDDIVAFLHSLNGVYTPYMQDKQ	4.69	5.53	–	4.76	5.27 ± 1	12.2	10.8	5.31	11 ± 1.4	3.28 ± 0.2	5.16	> 8
MNIVVLISGNGSNLQAIIDACKTNKIKGTVRAVFSNKADAFGLERARQAGIATHTLIASAFDSREAYDRELIHEIDMYAPDVVVLAGFMRILSPAFVSHYAGRLLNIHPSLLPKYPGLHTHRQALENGDEEHGTSVHFVTDELDGGPVILQAKVPVFAGDSEDDITARVQTQEHAIYPLVISWFADGRLKMHENAAWLDGQRLPPQGYAADE	4.97 ± 0.32	5.15 ± 1.4	4.68 ± 0.53	4.39 ± 0.18	5.63 ± 2.2	–	9.87 ± 3.2	5.58 ± 0.33	–	2.94 ± 0.6	4.49 ± 0.41	4.883 ± 0.024
